Measured values from patent publication US20240002495A1 (MITSUBISHI TANABE PHARMA, published 2024).

T1: biotinylated 6His tag-AviTag-linked mature human IL-33 (residues 112 to 270) (human, UniProt O95760 112-270, biotin on the AviTag portion (BirA))
T1 construct: made in E. coli; also called biotinylated human IL-33 protein
T1 sequence: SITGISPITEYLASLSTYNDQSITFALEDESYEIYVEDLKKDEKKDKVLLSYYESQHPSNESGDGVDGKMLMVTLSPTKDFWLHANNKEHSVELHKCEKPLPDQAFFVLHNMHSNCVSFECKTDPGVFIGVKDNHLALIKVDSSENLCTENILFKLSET

T2: 6His-AviTag-linked cynomolgus monkey IL-33 (residues 112 to 269) (cynomolgus monkey, UniProt O95760 112-269 (human entry), biotin on the AviTag portion (BirA) in the SPR of Example 7; used without biotinylation in Example 10)
T2 construct: GenBank EHH57404 printed; also called cynomolgus monkey IL-33 protein; mature cynomolgus monkey IL-33
T2 chain: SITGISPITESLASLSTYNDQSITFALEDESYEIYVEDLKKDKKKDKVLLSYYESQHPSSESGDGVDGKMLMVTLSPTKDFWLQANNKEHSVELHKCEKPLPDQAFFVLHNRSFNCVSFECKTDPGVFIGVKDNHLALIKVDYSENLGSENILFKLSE


Columns and labels:
[1] = molecular target: T1, biotinylated 6His tag-AviTag-linked …; test: SPR, IL-33 on chip, Fab supernatant as analyte
Experimental: (§1) The library after the enrichment was used to construct a library of Escherichia coli secreting and expressing Fab. The culture supernatants of several hundreds of clones of Escherichia coli were subjected to measurement of dissociation rate constant (koff) by surface plasmon resonance (SPR) (ProteOn XPR36, available from Bio-Rad Laboratories, Inc.). The biotinylated human IL-33 protein (4 μg/mL) and cynomolgus monkey IL-33 protein (4 μg/mL) were loaded as ligands on a sensor chip (NLC sensor chip, available from Bio-Rad Laboratories, Inc.), to immobilize the human IL-33 protein at an amount equivalent to 1300 to 1600 RU, and the cynomolgus monkeyIL-33 protein at an amount equivalent to 1100 to 1500 RU. The culture supernatant of Escherichia coli was then loaded thereon as analyte to obtain a sensorgram with association phase of one minute and dissociation phase of 10 to 30 minutes. The sensorgram was subjected to interspot correction and blank correction using an SPR data analysis program (ProteOn Manager v3.1.0, available from Bio-Rad Laboratories, Inc.), and then values of koff were determined by off-rate analysis of Langmuir model.

[2] = molecular target: T2, 6His-AviTag-linked cynomolgus monkey …; test: SPR, IL-33 on chip, Fab supernatant as analyte
Experimental: as §1

Binder | Human IL-33 Binding Amount (RU) [1] | koff [1] | Cynomolgus Monkey IL-33 Binding Amount (RU) [2] | koff [2]
A00-0070 (Fab) (Fab, V domains shown, parental clone as Fab; also called V29; parental clone (Fab)) VH: EVQLLESGGGLVQPGGSLRLSCAASGFTFSDYYMNWVRQAPGKGLEWVSSISSSSSYIYYADSVKGRFTISRDNSKNTLYLQMNSLRAEDTAVYYCARDIGGMDVWGQGTLVTVSS VL: QSVLTQPPSASGTPGQRVTISCTGSSSNIGAVYNVHWYQQLPGTAPKLLIYRNNQRPSGVPDRFSGSKSGTSASLAISGLRSEDEADYYCQSYDSSRWVFGGGTKLTVL | 571 RU | 0.00427 s⁻¹ | 270 RU | 0.00522 s⁻¹
A13-1F05 (Fab) (Fab, V domains shown, Fab secreted by E. coli, tested as culture supernatant; also called V5) VH: EVQLLESGGGLVQPGGSLRLSCAASGFTFSDYYMNWVRQAPGKGLEWVSSISRYSGYIYYADSVKGRFTISRDNSKNTLYLQMNSLRAEDTAVYYCARDIGGMDVWGQGTLVTVSS VL: QSVLTQPPSASGTPGQRVTISCTGSSSNIGAVYNVHWYQQLPGTAPKLLIYRNNQRPSGVPDRFSGSKSGTSASLAISGLRSEDEADYYCQSYDSSRWVFGGGTKLTVL | 127 RU | 1.32e-05 s⁻¹ | 171 RU | 5.79e-05 s⁻¹
A12-1H08 (Fab) (Fab, V domains shown, Fab secreted by E. coli, tested as culture supernatant; also called V4) VH: EVQLLESGGGLVQPGGSLRLSCAASGFTFSDYYMDWVRQAPGKGLEWVSSISRASSYVYYADSVKGRFTISRDNSKNTLYLQMNSLRAEDTAVYYCARDIGGMDVWGQGTLVTVSS VL: QSVLTQPPSASGTPGQRVTISCTGSSSNIGAVYNVHWYQQLPGTAPKLLIYRNNQRPSGVPDRFSGSKSGTSASLAISGLRSEDEADYYCQSYDSSRWVFGGGTKLTVL | 77 RU | 1e-05 s⁻¹ | 102 RU | 7.51e-05 s⁻¹
A12-1H04 (Fab) (Fab, V domains shown, Fab secreted by E. coli, tested as culture supernatant; also called V3) VH: EVQLLESGGGLVQPGGSLRLSCAASGFTFSDYYMDWVRQAPGKGLEWVSSISRYSGYVYYADSVKGRFTISRDNSKNTLYLQMNSLRAEDTAVYYCARDIGGMDVWGQGTLVTVSS VL: QSVLTQPPSASGTPGQRVTISCTGSSSNIGAVYNVHWYQQLPGTAPKLLIYRNNQRPSGVPDRFSGSKSGTSASLAISGLRSEDEADYYCQSYDSSRWVFGGGTKLTVL | 94 RU | 1.94e-05 s⁻¹ | 131 RU | 4.83e-05 s⁻¹
A10-1C04 (Fab) (Fab, V domains shown, Fab secreted by E. coli, tested as culture supernatant; also called V1) VH: EVQLLESGGGLVQPGGSLRLSCAASGFTFSDYYMNWVRQAPGKGLEWVSSISRYSSYIYYADSVKGRFTISRDNSKNTLYLQMNSLRAEDTAVYYCARDIGGMDVWGQGTLVTVSS VL: QSVLTQPPSASGTPGQRVTISCTGSSSNIGAVYDVHWYQQLPGTAPKLLIYRNNQRPSGVPDRFSGSKSGTSASLAISGLRSEDEADYYCQTYDSSRWVFGGGTKLTVL | 26 RU | ≤ 1e-05 s⁻¹ | 20 RU | 0.000165 s⁻¹
A12-1E04 (Fab) (Fab, V domains shown, Fab secreted by E. coli, tested as culture supernatant; also called V2) VH: EVQLLESGGGLVQPGGSLRLSCAASGFTFSDYYMNWVRQAPGKGLEWVSSISRYSGYVYYADSVKGRFTISRDNSKNTLYLQMNSLRAEDTAVYYCARDIGGMDVWGQGTLVTVSS VL: QSVLTQPPSASGTPGQRVTISCTGSSSNIGAVYDVHWYQQLPGTAPKLLIYRNNQRPSGVPDRFSGSKSGTSASLAISGLRSEDEADYYCQSYDSSRWVFGGGTKLTVL | 414 RU | 2.19e-05 s⁻¹ | 512 RU | 5.58e-05 s⁻¹
A00-0036 (Fab) (Fab, V domains shown, parental clone as Fab; also called V30; parental clone (Fab)) VH: EVQLLESGGGLVQPGGSLRLSCAASGFTFSNYYMHWVRQAPGKGLEWVSSISSSSSYIYYADSVKGRFTISRDNSKNTLYLQMNSLRAEDTAVYYCARLGTRHDAFDIWGQGTLVTVSS VL: QSVLTQPPSASGTPGQRVTISCSGSSSNIGNNAVNWYQQLPGTAPKLLIYASNMRRLGVPDRFSGSKSGTSASLAISGLRSEDEADYYCAAWDDSQKAVVFGGGTKLTVL | 78 RU | 0.0152 s⁻¹ | 59 RU | 0.0347 s⁻¹

Continued, values first:

Human IL-33 Binding Amount (RU) [1] | koff [1] | Cynomolgus Monkey IL-33 Binding Amount (RU) [2] | koff [2] | Binder
112 RU | 1e-05 s⁻¹ | 151 RU | 3.48e-05 s⁻¹ | A13-1F07 (Fab) (Fab, V domains shown, Fab secreted by E. coli, tested as culture supernatant; also called V6) VH: EVQLLESGGGLVQPGGSLRLSCAASGFTFSVYYMNWVRQAPGKGLEWVSSISRYSGYVYYADSVKGRFTISRDNSKNTLYLQMNSLRAEDTAVYYCARDIGGMDVWGQGTLVTVSS VL: QSVLTQPPSASGTPGQRVTISCTGSSSNIGAVYNVHWYQQLPGTAPKLLIYRNNQRPSGVPDRFSGSKSGTSASLAISGLRSEDEADYYCQSYDSRRWVFGGGTKLTVL
59 RU | 1e-05 s⁻¹ | 80 RU | 5.45e-05 s⁻¹ | A13-1G05 (Fab) (Fab, V domains shown, Fab secreted by E. coli, tested as culture supernatant; also called V7) VH: EVQLLESGGGLVQPGGSLRLSCAASGFTFSDYYVNWVRQAPGKGLEWVSSISRYSGYVYYADSVKGRFTISRDNSKNTLYLQMNSLRAEDTAVYYCARDIGGMDVWGQGTLVTVSS VL: QSVLTQPPSASGTPGQRVTISCTGSSSNIGAVYNVHWYQQLPGTAPKLLIYRNNQRPSGVPDRFSGSKSGTSASLAISGLRSEDEADYYCQSYDSSRWVFGGGTKLTVL
52 RU | 1.58e-05 s⁻¹ | 54 RU | 2.61e-05 s⁻¹ | A23-1A05 (Fab) (Fab, V domains shown, Fab secreted by E. coli, tested as culture supernatant; also called V8) VH: EVQLLESGGGLVQPGGSLRLSCAASGFTFSNYYMHWVRQAPGKGLEWVSSISARSRYHYYADSVKGRFTISRDNSKNTLYLQMNSLRAEDTAVYYCARLATRHNAFDIWGQGTLVTVSS VL: QSVLTQPPSASGTPGQRVTISCSGSSSNIGNNAVSWYQQLPGTAPKLLIYASNMRVIGVPDRFSGSKSGTSASLAISGLRSEDEADYYCGAWDDSQKALVFGGGTKLTVL
480 RU | 1.36e-05 s⁻¹ | 501 RU | 1.59e-05 s⁻¹ | A25-2C06 (Fab) (Fab, V domains shown, Fab secreted by E. coli, tested as culture supernatant; also called V12) VH: EVQLLESGGGLVQPGGSLRLSCAASGFTFSNYYMHWVRQAPGKGLEWVSSISARSSYIYYADSVKGRFTISRDNSKNTLYLQMNSLRAEDTAVYYCARLATRNNAFDIWGQGTLVTVSS VL: QSVLTQPPSASGTPGQRVTISCSGSSSNIGRNAVNWYQQLPGTAPKLLIYASNMRVIGVPDRFSGSKSGTSASLAISGLRSEDEADYYCGAWDDSQKRYVFGGGTKLTVL
256 RU | 1e-05 s⁻¹ | 237 RU | 1e-05 s⁻¹ | A25-2B02 (Fab) (Fab, V domains shown, Fab secreted by E. coli, tested as culture supernatant; also called V10) VH: EVQLLESGGGLVQPGGSLRLSCAASGFTFSNYYMHWVRQAPGKGLEWVSSISARSSYIYYADSVKGRFTISRDNSKNTLYLQMNSLRAEDTAVYYCARLATRNNAFDIWGQGTLVTVSS VL: QSVLTQPPSASGTPGQRVTISCSGSSSNIGRNAVNWYQQLPGTAPKLLIYASNMRVLGVPDRFSGSKSGTSASLAISGLRSEDEADYYCWAWDDSQKAVVFGGGTKLTVL
950 RU | 1e-05 s⁻¹ | 832 RU | 1e-05 s⁻¹ | A25-2D01 (Fab) (Fab, V domains shown, Fab secreted by E. coli, tested as culture supernatant; also called V9) VH: EVQLLESGGGLVQPGGSLRLSCAASGFTFSNYYMHWVRQAPGKGLEWVSSISARSSYIYYADSVKGRFTISRDNSKNTLYLQMNSLRAEDTAVYYCARLATRNNAFDIWGQGTLVTVSS VL: QSVLTQPPSASGTPGQRVTISCSGSSSNIGRNAVNWYQQLPGTAPKLLIYASNMRVIGVPDRFSGSKSGTSASLAISGLRSEDEADYYCAAWDDSQKAWVFGGGTKLTVL
334 RU | 3.41e-05 s⁻¹ | 330 RU | 7.37e-05 s⁻¹ | A25-2C07 (Fab) (Fab, V domains shown, Fab secreted by E. coli, tested as culture supernatant; also called V13) VH: EVQLLESGGGLVQPGGSLRLSCAASGFTFSNYYMHWVRQAPGKGLEWVSSISARSSYIYYADSVKGRFTISRDNSKNTLYLQMNSLRAEDTAVYYCARLATRNNAFDIWGQGTLVTVSS VL: QSVLTQPPSASGTPGQRVTISCSGSSSNIGNNAVNWYQQLPGTAPKLLIYASNMRGSGVPDRFSGSKSGTSASLAISGLRSEDEADYYCAAWDDSQKGQVFGGGTKLTVL
930 RU | 1e-05 s⁻¹ | 839 RU | 1e-05 s⁻¹ | A25-2C02 (Fab) (Fab, V domains shown, Fab secreted by E. coli, tested as culture supernatant; also called V15) VH: EVQLLESGGGLVQPGGSLRLSCAASGFTFSNYYMHWVRQAPGKGLEWVSSISARSSYIYYADSVKGRFTISRDNSKNTLYLQMNSLRAEDTAVYYCARLATRNNAFDIWGQGTLVTVSS VL: QSVLTQPPSASGTPGQRVTISCSGSSSNIGRNAVNWYQQLPGTAPKLLIYASNMRVSGVPDRFSGSKSGTSASLAISGLRSEDEADYYCWAWDDSQKVGVFGGGTKLTVL
